The target in one test is T1, TXNDC12 (Homo sapiens, UniProt O95881).
T1 construct: endogenous in cells; host or cells: HEK293 Flp-In/T-REx
Put plainly: Flag IP-MS of i53/i53-DM baits: prey TXNDC12. The class given is binding. The following applies: 293T Flp-In/T-Rex extracts, LC-MS/MS, one column per replicate IP. As for the experimental part: (§1) Following immunoprecipitation of Flag-tagged i53 and i-53-DM from HEK293 Flp-In/T-REx cells, peptides were identified using LC-MS/MS. Proteins were digested in solution with trypsin (Sigma, T7575-1KT) and dried to completeness. For LC-MS/MS analysis, peptides were reconstituted in 5% formic acid and loaded onto a 12-15 cm fused silica column with pulled tip packed in-house with 3.5 μm Zorbax C18 (Agilent Technologies, Calif., USA).
(§2) i53 and i53-DM precipitates were analyzed using an LTQ (Thermo Scientific) coupled to an Agilent 1100 Series HPLC (Agilent Technologies). Peptides were eluted from the column using a 90 min period cycle with a linear gradient from 0% to 40% ACN in 0.1% formic acid. Tandem MS spectra were acquired in a data-dependent mode for the top 5 (LTQ) most abundant ions using collision-induced dissociation. Acquired spectra were searched against the human Refseq_V53 database using Mascot (Matrix Science).
(§3) 293T Flp-In/T-Rex cell lines were generated that expressed Flag-tagged i53 or i53-DM under the control of a tetracycline-inducible promoter as previously described. Nine IP-MS experiments were analyzed (3 biological replicate IPs each for control i53- and i53-DM expressing cell lines). The interacting proteins were identified by MASCOT to identify high-confidence interactors for i53. […]

The target of a further test is T2, RPL17 (Homo sapiens, UniProt P18621).
T2 construct: endogenous in cells; host or cells: HEK293 Flp-In/T-REx
As to the kind of experiment: Flag IP-MS of i53/i53-DM baits: prey RPL17. Format: binding. Conditions: 293T Flp-In/T-Rex extracts, LC-MS/MS, one column per replicate IP. As for the experimental part:
as §1, §2, §3

For a further test, the target named is T3, KRT6A (Homo sapiens, UniProt P02538).
T3 construct: Following immunoprecipitation of Flag-tagged i53 and i-53-DM from HEK293 Flp-In/T-REx cells, peptides were identified using LC-MS/MS; endogenous in cells; host or cells: HEK293 Flp-In/T-REx cells
T3 sequence (P02538 1-564): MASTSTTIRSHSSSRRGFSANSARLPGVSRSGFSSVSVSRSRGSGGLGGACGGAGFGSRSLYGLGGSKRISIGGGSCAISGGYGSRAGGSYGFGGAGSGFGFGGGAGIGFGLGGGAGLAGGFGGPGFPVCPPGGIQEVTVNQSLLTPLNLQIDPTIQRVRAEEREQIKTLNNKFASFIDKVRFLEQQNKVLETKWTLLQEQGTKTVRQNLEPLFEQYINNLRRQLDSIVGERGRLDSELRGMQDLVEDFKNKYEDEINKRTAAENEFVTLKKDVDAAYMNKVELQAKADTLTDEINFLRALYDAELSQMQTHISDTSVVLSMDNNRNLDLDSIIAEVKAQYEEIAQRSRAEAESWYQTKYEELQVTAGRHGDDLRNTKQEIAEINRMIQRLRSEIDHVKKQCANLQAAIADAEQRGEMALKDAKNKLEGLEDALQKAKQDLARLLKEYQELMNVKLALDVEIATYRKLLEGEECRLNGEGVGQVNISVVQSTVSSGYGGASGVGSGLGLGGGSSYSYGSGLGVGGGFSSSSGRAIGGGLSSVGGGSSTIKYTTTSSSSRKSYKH
As to the kind of experiment: Flag IP-MS of i53/i53-DM baits: prey KRT6A. Format: binding. The following applies: 293T Flp-In/T-Rex extracts, LC-MS/MS, one column per replicate IP. Here is the method: as §1, §2, §3

For the next test, the target named is T4, RBMXL1 (Homo sapiens, UniProt Q96E39).
T4 construct: endogenous in cells; host or cells: HEK293 Flp-In/T-REx cells
As to the kind of experiment: Flag IP-MS of i53/i53-DM baits: prey RBMXL1. The class given is binding. The following applies: 293T Flp-In/T-Rex extracts, LC-MS/MS, one column per replicate IP. As for the experimental part:
as §1, §2, §3

In another test the target is T5, DLEC1 (Homo sapiens, UniProt Q9Y238).
T5 construct: endogenous in cells; host or cells: HEK293 Flp-In/T-REx cells
As to the kind of experiment: Flag IP-MS of i53/i53-DM baits: prey DLEC1. The class given is binding. The following applies: 293T Flp-In/T-Rex extracts, LC-MS/MS, one column per replicate IP. As for the experimental part: as §1, §2, §3

In test [1] the test system is BRCA1 focus formation in U2OS cells. As to the kind of experiment: Ionizing radiation focus formation, BRCA1 (immunofluorescence). Format: cell-based. Conditions: 10 Gy. Here is the method:
FIG. 3. The i53 protein inhibits 53BP1. FIG. 3A-B, U2OS cells were transfected with vectors expressing i53, its 53BP1-binding deficient mutant (DM) or an empty vector (EV) control. Cells were then X-irradiated with a 10 Gy dose and processed for immunofluorescence with the indicated antibodies 1 h post-irradiation (IR). DAPI staining (not shown) was used to delineate the outline (dashed lines) of the cell nuclei. The region in the magnified inset is indicated with a square. Quantitation of the experiment is shown in panel (a) and data is indicated as the mean±s.e.m (N=3), whereas in (b) representative micrographs are shown. Arrowheads indicate Flag-positive cells. FIG. 3C, Parental or 53BP1ΔU2OS cells transfected with vectors expressing i53, the DM mutant or an empty vector (EV) control were irradiated (10 Gy) 1 h before being processed for immunofluorescence. Cell cycle stage was assessed by Cyclin A staining. The data is presented as the mean±s.e.m.; N=3. FIG. 3D, Immunoprecipitation (IP) of Flag-tagged proteins from extracts prepared from 293T cells transfected with vectors expressing Flag-i53 or the i53-DM mutant. Proteins were separated by SDS-PAGE and immunoblotted (IB) for Flag and 53BP1. […]

In the next test the target is T6, TP53BP1 (Homo sapiens, UniProt Q12888).
T6 construct: endogenous in cells; host or cells: HEK293 Flp-In/T-REx
Put plainly: Flag IP-MS of i53/i53-DM baits: prey TP53BP1. The class given is binding. As for the experimental part: as §1, §2, §3

For another test, the target named is T7, NAP1L1 (Homo sapiens, UniProt P55209).
T7 construct: endogenous in cells; host or cells: HEK293 Flp-In/T-REx
T7 sequence (P55209 1-391): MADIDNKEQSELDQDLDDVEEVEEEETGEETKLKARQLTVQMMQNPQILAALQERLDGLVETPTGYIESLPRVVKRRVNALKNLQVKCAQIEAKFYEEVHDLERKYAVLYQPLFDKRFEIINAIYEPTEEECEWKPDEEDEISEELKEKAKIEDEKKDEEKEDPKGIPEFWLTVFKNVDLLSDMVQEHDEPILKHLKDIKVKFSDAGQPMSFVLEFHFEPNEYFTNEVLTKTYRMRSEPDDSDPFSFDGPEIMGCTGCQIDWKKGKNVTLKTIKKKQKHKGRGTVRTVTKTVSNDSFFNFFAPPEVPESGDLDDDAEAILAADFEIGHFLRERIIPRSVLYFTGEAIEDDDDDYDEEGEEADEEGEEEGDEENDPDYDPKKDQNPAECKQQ
As to the kind of experiment: Flag IP-MS of i53/i53-DM baits: prey NAP1L1. The class given is binding. The following applies: 293T Flp-In/T-Rex extracts, LC-MS/MS, one column per replicate IP. Here is the method:
as §1, §2, §3

Values joined by “and” are separate entries in the source; they are usually repeats but may differ in a detail not shown here. Equal values may be shown once.

T6 sequence (Q12888 whole entry): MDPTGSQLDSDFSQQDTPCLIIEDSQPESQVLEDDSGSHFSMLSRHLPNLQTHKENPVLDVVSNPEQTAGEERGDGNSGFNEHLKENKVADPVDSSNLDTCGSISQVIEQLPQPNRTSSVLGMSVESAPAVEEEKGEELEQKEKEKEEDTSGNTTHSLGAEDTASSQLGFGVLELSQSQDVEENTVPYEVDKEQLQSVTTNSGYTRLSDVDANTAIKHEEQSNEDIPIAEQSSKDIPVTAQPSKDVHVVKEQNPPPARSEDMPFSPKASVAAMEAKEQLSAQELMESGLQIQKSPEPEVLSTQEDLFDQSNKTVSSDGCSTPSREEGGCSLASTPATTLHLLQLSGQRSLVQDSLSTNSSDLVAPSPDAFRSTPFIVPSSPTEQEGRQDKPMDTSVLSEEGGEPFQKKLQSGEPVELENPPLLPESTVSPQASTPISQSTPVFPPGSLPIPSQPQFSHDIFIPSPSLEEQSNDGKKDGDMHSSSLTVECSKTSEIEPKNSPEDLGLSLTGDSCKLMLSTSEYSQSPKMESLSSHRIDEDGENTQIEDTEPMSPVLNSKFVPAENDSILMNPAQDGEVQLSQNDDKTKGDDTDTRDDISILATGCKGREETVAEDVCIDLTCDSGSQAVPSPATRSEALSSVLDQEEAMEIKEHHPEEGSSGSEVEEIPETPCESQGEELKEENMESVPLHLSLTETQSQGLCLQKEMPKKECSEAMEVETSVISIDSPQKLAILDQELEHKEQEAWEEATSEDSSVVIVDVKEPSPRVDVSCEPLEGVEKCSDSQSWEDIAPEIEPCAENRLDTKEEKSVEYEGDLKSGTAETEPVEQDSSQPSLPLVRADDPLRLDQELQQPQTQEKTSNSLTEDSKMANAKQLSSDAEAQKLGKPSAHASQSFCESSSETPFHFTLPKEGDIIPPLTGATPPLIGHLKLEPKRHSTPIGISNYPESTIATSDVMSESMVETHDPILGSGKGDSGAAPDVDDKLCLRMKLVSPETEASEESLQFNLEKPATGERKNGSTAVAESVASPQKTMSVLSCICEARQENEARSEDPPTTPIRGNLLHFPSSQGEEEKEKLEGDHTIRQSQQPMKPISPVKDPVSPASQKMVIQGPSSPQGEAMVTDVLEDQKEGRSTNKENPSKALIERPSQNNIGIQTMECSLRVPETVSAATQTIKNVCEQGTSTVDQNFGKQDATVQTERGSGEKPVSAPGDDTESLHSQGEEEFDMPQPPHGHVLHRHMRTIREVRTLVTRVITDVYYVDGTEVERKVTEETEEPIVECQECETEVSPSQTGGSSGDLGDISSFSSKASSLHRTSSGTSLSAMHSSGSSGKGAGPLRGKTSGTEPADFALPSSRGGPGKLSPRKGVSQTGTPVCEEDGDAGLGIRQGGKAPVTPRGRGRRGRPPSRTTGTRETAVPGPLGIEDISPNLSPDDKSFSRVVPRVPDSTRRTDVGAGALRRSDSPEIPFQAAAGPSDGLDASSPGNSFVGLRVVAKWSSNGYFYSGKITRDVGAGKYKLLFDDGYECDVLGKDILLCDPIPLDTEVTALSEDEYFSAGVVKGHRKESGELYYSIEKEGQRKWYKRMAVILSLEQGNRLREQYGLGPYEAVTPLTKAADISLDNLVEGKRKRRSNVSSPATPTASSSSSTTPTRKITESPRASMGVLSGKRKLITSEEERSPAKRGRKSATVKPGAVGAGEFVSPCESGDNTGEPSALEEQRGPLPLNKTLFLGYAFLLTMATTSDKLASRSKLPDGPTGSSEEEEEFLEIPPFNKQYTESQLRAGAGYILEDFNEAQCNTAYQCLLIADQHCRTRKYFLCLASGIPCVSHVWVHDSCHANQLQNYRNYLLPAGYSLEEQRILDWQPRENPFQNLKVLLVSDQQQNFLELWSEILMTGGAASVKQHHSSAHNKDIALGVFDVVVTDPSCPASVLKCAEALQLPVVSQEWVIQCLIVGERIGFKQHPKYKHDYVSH
T5 sequence (Q9Y238 whole entry): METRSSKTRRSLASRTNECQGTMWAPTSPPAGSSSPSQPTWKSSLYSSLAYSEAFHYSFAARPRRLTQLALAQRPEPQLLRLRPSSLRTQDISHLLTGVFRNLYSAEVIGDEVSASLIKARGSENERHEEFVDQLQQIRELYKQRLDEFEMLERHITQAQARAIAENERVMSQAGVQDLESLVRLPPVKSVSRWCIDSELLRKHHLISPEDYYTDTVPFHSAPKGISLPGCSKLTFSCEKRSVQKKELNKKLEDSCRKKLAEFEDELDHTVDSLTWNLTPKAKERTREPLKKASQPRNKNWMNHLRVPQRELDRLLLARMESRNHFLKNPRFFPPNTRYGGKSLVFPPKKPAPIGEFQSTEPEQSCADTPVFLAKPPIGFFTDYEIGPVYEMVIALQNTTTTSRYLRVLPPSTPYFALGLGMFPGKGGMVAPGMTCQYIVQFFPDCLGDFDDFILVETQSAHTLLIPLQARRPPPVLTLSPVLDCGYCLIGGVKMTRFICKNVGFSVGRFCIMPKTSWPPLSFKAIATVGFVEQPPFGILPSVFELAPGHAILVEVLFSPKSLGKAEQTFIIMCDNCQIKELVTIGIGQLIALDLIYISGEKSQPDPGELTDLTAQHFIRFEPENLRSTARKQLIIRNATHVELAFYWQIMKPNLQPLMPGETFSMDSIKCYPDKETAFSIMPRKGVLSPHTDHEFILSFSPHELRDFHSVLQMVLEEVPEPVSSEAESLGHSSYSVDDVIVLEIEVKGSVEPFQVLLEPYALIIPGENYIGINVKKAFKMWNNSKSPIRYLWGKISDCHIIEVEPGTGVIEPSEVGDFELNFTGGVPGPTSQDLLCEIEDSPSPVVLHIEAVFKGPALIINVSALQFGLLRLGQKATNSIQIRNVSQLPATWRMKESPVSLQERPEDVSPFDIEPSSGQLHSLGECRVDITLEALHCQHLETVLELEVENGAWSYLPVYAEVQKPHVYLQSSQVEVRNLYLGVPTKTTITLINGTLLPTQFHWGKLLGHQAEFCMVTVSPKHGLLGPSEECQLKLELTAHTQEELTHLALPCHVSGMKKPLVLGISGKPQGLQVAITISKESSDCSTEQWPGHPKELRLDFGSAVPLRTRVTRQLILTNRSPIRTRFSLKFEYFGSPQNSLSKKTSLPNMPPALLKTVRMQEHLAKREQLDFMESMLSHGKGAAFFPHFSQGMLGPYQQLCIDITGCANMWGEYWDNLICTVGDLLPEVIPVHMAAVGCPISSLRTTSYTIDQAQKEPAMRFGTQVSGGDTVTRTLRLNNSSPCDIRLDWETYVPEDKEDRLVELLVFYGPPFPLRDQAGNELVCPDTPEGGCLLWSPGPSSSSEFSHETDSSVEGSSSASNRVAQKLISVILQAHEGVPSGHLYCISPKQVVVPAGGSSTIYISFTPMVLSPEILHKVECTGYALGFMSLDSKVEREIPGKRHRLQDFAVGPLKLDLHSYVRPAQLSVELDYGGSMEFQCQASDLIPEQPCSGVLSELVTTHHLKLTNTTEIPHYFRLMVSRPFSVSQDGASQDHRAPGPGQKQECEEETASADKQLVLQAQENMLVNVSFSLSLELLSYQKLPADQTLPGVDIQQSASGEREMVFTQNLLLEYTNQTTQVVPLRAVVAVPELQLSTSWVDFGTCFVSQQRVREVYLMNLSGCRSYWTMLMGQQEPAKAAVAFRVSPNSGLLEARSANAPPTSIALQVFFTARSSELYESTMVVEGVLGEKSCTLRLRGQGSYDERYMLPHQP
T4 sequence (Q96E39 whole entry): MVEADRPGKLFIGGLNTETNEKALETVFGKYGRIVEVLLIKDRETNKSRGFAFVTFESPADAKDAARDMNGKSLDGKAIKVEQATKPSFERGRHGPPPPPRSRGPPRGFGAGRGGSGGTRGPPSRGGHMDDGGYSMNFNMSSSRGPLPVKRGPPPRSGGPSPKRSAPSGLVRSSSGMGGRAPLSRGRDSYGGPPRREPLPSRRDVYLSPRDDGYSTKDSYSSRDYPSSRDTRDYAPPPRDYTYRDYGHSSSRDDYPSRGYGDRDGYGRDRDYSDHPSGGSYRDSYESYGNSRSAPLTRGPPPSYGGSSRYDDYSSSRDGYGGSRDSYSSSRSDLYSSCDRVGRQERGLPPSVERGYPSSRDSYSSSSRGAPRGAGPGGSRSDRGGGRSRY
T1 sequence (O95881 27-172): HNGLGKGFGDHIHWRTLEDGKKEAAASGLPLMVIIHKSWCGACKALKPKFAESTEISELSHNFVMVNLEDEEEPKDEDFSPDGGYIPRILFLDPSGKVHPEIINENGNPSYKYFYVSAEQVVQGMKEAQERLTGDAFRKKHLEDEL

Take “i53-DM: 53BP1-binding deficient mutant of i53 (P69L, L70V)”: in the test with TXNDC12, the “Total peptides, TXNDC12” value stood at 2. The “Total peptides, RPL17” value in the test with RPL17 came to 5. Also, in the test with KRT6A, the “Total peptides, KRT6A” value came to 3. Further, in the test with RBMXL1, the “Total peptides, RBMXL1” value was 3. Besides, in the test with DLEC1, the “Total peptides, DLEC1” value came out at 2.
In the case of “i53: UbvG08 with C-terminal di-glycine removed and I44A mutation; genetically encoded inhibitor of 53BP1”, the “BRCA1 accumulation at DSB sites in G1 cells” value in test [1] (U2OS cells, cell cycle stage by Cyclin A staining) is listed as “induced BRCA1 accumulation at DSB sites in G1 cells”. Also, in test [1] (transfected U2OS cells, 1 h post-irradiation), the BRCA1 focus formation result is reported as “did not impact”. Besides, in the test with TP53BP1 (Flag IP, 293T Flp-In/T-Rex extracts, LC-MS/MS, one column per replicate IP, listed as Flag-i53), the “Total peptides, TP53BP1” value is 66 and 38 and 21. In the test with TP53BP1 (three biological replicate IPs, interactors in two or more experiments), the “Selectivity of binding to cellular proteins (IP-MS conclusion)” value is “highly selective binder of 53BP1”. For the same substance, the “Total peptides, NAP1L1” value with NAP1L1 was found to be 4.

For the origin of these results see patent publication US10808017B2, “Ubiquitin variants and uses therof as 53BP1 inhibitors” (The Governing Council of the University of Toronto, priority 2016, dated 2020).
